# Results taken from patent US20110263454A1, “Methods of Identifying Functional Characteristics of Promoters, Transcription Modifying Proteins and Transcription Modulating Agents” (Salk Institute for Biological Studies, priority 2008, published 2011).
# B1: ERR3: Estrogen Related Receptor γ (NR3B3, ERRg), cDNA driver (protein, UniProt P62508 1-458, looked up)
# Estrogen-related receptor …: MDSVELCLPESFSLHYEEELLCRMSNKDRHIDSSCSSFIKTEPSSPASLTDSVNHHSPGGSSDASGSYSSTMNGHQNGLDSPPLYPSAPILGGSGPVRKLYDDCSSTIVEDPQTKCEYMLNSMPKRLCLVCGDIASGYHYGVASCEACKAFFKRTIQGNIEYSCPATNECEITKRRRKSCQACRFMKCLKVGMLKEGVRLDRVRGGRQKYKRRIDAENSPYLNPQLVQPAKKPYNKIVSHLLVAEPEKIYAMPDPTVPDSDIKALTTLCDLADRELVVIIGWAKHIPGFSTLSLADQMSLLQSAWMEILILGVVYRSLSFEDELVYADDYIMDEDQSKLAGLLDLNNAILQLVKKYKSMKLEKEEFVTLKAIALANSDSMHIEDVEAVQKLQDVLHEALQDYEAGQHMEDPRRAGKMLMTLPLLRQTSTKAVQHFYNIKLEGKVPMHKLFLEMLEAKV
# B2: ERR2: Estrogen Related Receptor β (NR3B2, ERRb), cDNA driver (protein, UniProt O95718 1-433, looked up)
# Steroid hormone receptor ERR2: MSSDDRHLGSSCGSFIKTEPSSPSSGIDALSHHSPSGSSDASGGFGLALGTHANGLDSPPMFAGAGLGGTPCRKSYEDCASGIMEDSAIKCEYMLNAIPKRLCLVCGDIASGYHYGVASCEACKAFFKRTIQGNIEYSCPATNECEITKRRRKSCQACRFMKCLKVGMLKEGVRLDRVRGGRQKYKRRLDSESSPYLSLQISPPAKKPLTKIVSYLLVAEPDKLYAMPPPGMPEGDIKALTTLCDLADRELVVIIGWAKHIPGFSSLSLGDQMSLLQSAWMEILILGIVYRSLPYDDKLVYAEDYIMDEEHSRLAGLLELYRAILQLVRRYKKLKVEKEEFVTLKALALANSDSMYIEDLEAVQKLQDLLHEALQDYELSQRHEEPWRTGKLLLTLPLLRQTAAKAVQHFYSVKLQGKVPMHKLFLEMLEAKV
# B3: Erb: Estrogen Receptor β (NR3A2, ERb), cDNA driver (protein, UniProt Q92731 1-530, looked up)
# Estrogen receptor beta: MDIKNSPSSLNSPSSYNCSQSILPLEHGSIYIPSSYVDSHHEYPAMTFYSPAVMNYSIPSNVTNLEGGPGRQTTSPNVLWPTPGHLSPLVVHRQLSHLYAEPQKSPWCEARSLEHTLPVNRETLKRKVSGNRCASPVTGPGSKRDAHFCAVCSDYASGYHYGVWSCEGCKAFFKRSIQGHNDYICPATNQCTIDKNRRKSCQACRLRKCYEVGMVKCGSRRERCGYRLVRRQRSADEQLHCAGKAKRSGGHAPRVRELLLDALSPEQLVLTLLEAEPPHVLISRPSAPFTEASMMMSLTKLADKELVHMISWAKKIPGFVELSLFDQVRLLESCWMEVLMMGLMWRSIDHPGKLIFAPDLVLDRDEGKCVEGILEIFDMLLATTSRFRELKLQHKEYLCVKAMILLNSSMYPLVTATQDADSSRKLAHLLNAVTDALVWVIAKSGISSQQQSMRLANLLMLLSHVRHASNKGMEHLLNMKCKNVVPVYDLLLEMLNAHVLRGCKSSITGSECSPAEDSKSKEGSQNPQSQ
# B4: CTF1: COUP-TF1 (NR2F1), cDNA driver (protein, UniProt P10589 1-423, looked up)
# COUP transcription factor 1: MAMVVSSWRDPQDDVAGGNPGGPNPAAQAARGGGGGAGEQQQQAGSGAPHTPQTPGQPGAPATPGTAGDKGQGPPGSGQSQQHIECVVCGDKSSGKHYGQFTCEGCKSFFKRSVRRNLTYTCRANRNCPIDQHHRNQCQYCRLKKCLKVGMRREAVQRGRMPPTQPNPGQYALTNGDPLNGHCYLSGYISLLLRAEPYPTSRYGSQCMQPNNIMGIENICELAARLLFSAVEWARNIPFFPDLQITDQVSLLRLTWSELFVLNAAQCSMPLHVAPLLAAAGLHASPMSADRVVAFMDHIRIFQEQVEKLKALHVDSAEYSCLKAIVLFTSDACGLSDAAHIESLQEKSQCALEEYVRSQYPNQPSRFGKLLLRLPSLRTVSSSVIEQLFFVRLVGKTPIETLIRDMLLSGSSFNWPYMSIQCS
# B5: TR4: Testicular Orphan Nuclear Receptor 4 (NR2C2), cDNA driver (protein, UniProt P49116 1-596, looked up)
# Nuclear receptor subfamily 2 …: MTSPSPRIQIISTDSAVASPQRIQIVTDQQTGQKIQIVTAVDASGSPKQQFILTSPDGAGTGKVILASPETSSAKQLIFTTSDNLVPGRIQIVTDSASVERLLGKTDVQRPQVVEYCVVCGDKASGRHYGAVSCEGCKGFFKRSVRKNLTYSCRSNQDCIINKHHRNRCQFCRLKKCLEMGMKMESVQSERKPFDVQREKPSNCAASTEKIYIRKDLRSPLIATPTFVADKDGARQTGLLDPGMLVNIQQPLIREDGTVLLATDSKAETSQGALGTLANVVTSLANLSESLNNGDTSEIQPEDQSASEITRAFDTLAKALNTTDSSSSPSLADGIDTSGGGSIHVISRDQSTPIIEVEGPLLSDTHVTFKLTMPSPMPEYLNVHYICESASRLLFLSMHWARSIPAFQALGQDCNTSLVRACWNELFTLGLAQCAQVMSLSTILAAIVNHLQNSIQEDKLSGDRIKQVMEHIWKLQEFCNSMAKLDIDGYEYAYLKAIVLFSPDHPGLTSTSQIEKFQEKAQMELQDYVQKTYSEDTYRLARILVRLPALRLMSSNITEELFFTGLIGNVSIDSIIPYILKMETAEYNGQITGASL
# Tested on: hG6PD promoter
# Test: NHR-promoter luciferase screen, hG6PD promoter
# Assay type: cell-based, human
# Conditions: G6PD promoter reporter; co-transfected HR, without or with its ligand
# Summary of the method: (§1)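 CV-1 cells were co-transfected with 50 ng NHR (homodimer or NHR/RXR heterodimer), 100 ng promoter-luciferase construct and 50 ng LacZ. Luciferase was normalized to LacZ and to a no-NHR/no-ligand control.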
row,Molecule,"Luc. act., normalized to lacZ"
1,B1,63.7
2,B2,59.1
3,B3,45.3
4,B4,39.7
5,B5,66.2

# Same assay, conditions: G6PD promoter reporter; co-transfected HR, without or with its ligand; relative to control
row,Molecule,"Normalized Luc. act., normalized to control"
1,B1,1.7
2,B2,1.6
3,B3,1.2
4,B4,1.1
5,B5,1.8

# Same assay, conditions: hG6PD promoter-luciferase, CV-1 cells, NHR +/- ligand, control = 1.00
row,Molecule,"luciferase activity normalized to lacZ activity and to a control, hG6PD"
1,B1,1.70
2,B2,1.58
3,B3,1.21
4,B4,1.06
5,B5,1.77

# Tested on: hMyoD promoter
# Test: NHR-promoter luciferase screen, hMyoD promoter
# Assay type: cell-based, human
# Conditions: MyoD promoter reporter; co-transfected HR, without or with its ligand
# Summary of the method: as §1
row,Molecule,"Luc. act., normalized to lacZ"
1,B1,129.6
2,B2,164.8
3,B3,50.6
4,B4,44.8
5,B5,213.9

# Same assay, conditions: MyoD promoter reporter; co-transfected HR, without or with its ligand; relative to control
row,Molecule,"Normalized Luc. act., normalized to control"
1,B1,2.0
2,B2,2.6
3,B3,0.8
4,B4,0.7
5,B5,3.4

# Same assay, conditions: hMyoD promoter-luciferase, CV-1 cells, NHR +/- ligand, control = 1.00
row,Molecule,"luciferase activity normalized to lacZ activity and to a control, hMyoD"
1,B1,2.05
2,B2,2.60
3,B3,0.80
4,B4,0.71
5,B5,3.38

# Tested on: mGhrelin promoter
# Test: NHR-promoter luciferase screen, mGhrelin promoter
# Assay type: cell-based, mouse
# Conditions: Table 8; mGhrelin
# Summary of the method: as §1
Molecule,"Luc. act., normalized to lacZ","Normalized Luc. act., normalized to control"
B1,145.9,2.8
B2,365.8,7.0
B3,47.5,0.9
B4,113.8,2.2
B5,273.5,5.2

# Same assay, conditions: Table 6d; luciferase activity relative to control (control = 1.00)
row,Molecule,Results of assays of transcription factor (+/- ligand) with mGhrelin
1,B1,2.79
2,B2,7.00
3,B3,0.91
4,B4,2.18
5,B5,5.23

# Same assay, conditions: mGhrelin promoter-luciferase, NHR +/- ligand, control = 1.0
row,Molecule,"luciferase/LacZ, mGhrelin (selected results)"
1,B2,7.0
2,B5,5.2

# Tested on: mLeptin promoter
# Test: NHR-promoter luciferase screen, mLeptin promoter
# Assay type: cell-based, mouse
# Conditions: Table 7; mLeptin
# Summary of the method: as §1
Molecule,"Luc. act., normalized to lacZ","Normalized Luc. act., normalized to control"
B1,2.4,0.8
B2,9.7,3.3
B3,2.5,0.9
B4,3.1,1.1
B5,7.5,2.6

# Same assay, conditions: Table 6d; luciferase activity relative to control (control = 1.00)
row,Molecule,Results of assays of transcription factor (+/- ligand) with mLeptin
1,B1,0.80
2,B2,3.30
3,B3,0.86
4,B4,1.07
5,B5,2.56

# Same assay, conditions: mLeptin promoter-luciferase, NHR +/- ligand, control = 1.0
row,Molecule,"luciferase/LacZ, mLeptin (selected results)"
1,B2,3.3
2,B5,2.6

# Tested on: hMDR1 promoter
# Test: NHR-promoter luciferase screen, hMDR1 promoter
# Assay type: cell-based, human
# Conditions: MDR1 promoter; HR/ligand component
# Summary of the method: as §1
Molecule,"Luc. act., normalized to lacZ","Normalized Luc. act., normalized to control"
B1,0.2,0.8
B2,0.4,1.2
B3,0.3,1.1
B4,0.3,0.9
B5,0.5,1.6

# Same assay, conditions: transcription factor +/- ligand; control = 1.00
row,Molecule,hMDR1 promoter reporter activity
1,B1,0.79
2,B2,1.20
3,B3,1.06
4,B4,0.92
5,B5,1.57

# Tested on: hPPARg2 promoter
# Test: NHR-promoter luciferase screen, hPPARg2 promoter
# Assay type: cell-based, human
# Conditions: PPARG2 promoter; hormone receptor with or without its ligand
# Summary of the method: as §1
row,Molecule,"Luc. act., normalized to lacZ"
1,B1,2.1
2,B2,3.2
3,B3,2.3
4,B4,1.4
5,B5,3.3

# Same assay, conditions: PPARG2 promoter; hormone receptor with or without its ligand; relative to control
row,Molecule,"Normalized Luc. act., normalized to control"
1,B1,1.0
2,B2,1.6
3,B3,1.1
4,B4,0.7
5,B5,1.6

# Same assay, conditions: Table 6d; luciferase activity relative to control (control = 1.00)
row,Molecule,Results of assays of transcription factor (+/- ligand) with hPPARg2
1,B1,1.04
2,B2,1.59
3,B3,1.13
4,B4,0.71
5,B5,1.65
